The labels stand for the following.
B1: DNA repair protein RAD51 (Saccharomyces cerevisiae), P25454 (parent)
chain: MSQVQEQHISESQLQYGNGSLMSTVPADLSQSVVDGNGNGSSEDIEATNGSGDGGGLQEQAEAQGEMEDEAYDEAALGSFVPIEKLQVNGITMADVKKLRESGLHTAEAVAYAPRKDLLEIKGISEAKADKLLNEAARLVPMGFVTAADFHMRRSELICLTTGSKNLDTLLGGGVETGSITELFGEFRTGKSQLCHTLAVTCQIPLDIGGGEGKCLYIDTEGTFRPVRLVSIAQRFGLDPDDALNNVAYARAYNADHQLRLLDAAAQMMSESRFSLIVVDSVMALYRTDFSGRGELSARQMHLAKFMRALQRLADQFGVAVVVTNQVVAQVDGGMAFNPDPKKPIGGNIMAHSSTTRLGFKKGKGCQRLCKVVDSPCLPEAECVFAIYEDGVGDPREEDE

In one assay the parent is B1. The following applies: with smt3_yeast SMT3, Q12306.
Sequence of smt3_yeast SMT3, Q12306 (Q12306 whole entry): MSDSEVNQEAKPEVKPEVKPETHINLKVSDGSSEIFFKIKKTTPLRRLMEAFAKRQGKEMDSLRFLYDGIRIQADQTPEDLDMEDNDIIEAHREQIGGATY
Turning to MSQVQEQHISESQLQYGNGSLMSTVPADLSQSVVDGNGNGSSEDIEATNGSGDGGGLQEQAEAQGEMEDEAYDEAALGSFVPIEKLQVNGITMADVKKLRESGLHTAEAVAYAPRKDLLEIKGISEAKADKLLNEAARLVPMGFVTAADFHMRRSELICLTTGSKNLDTLLGGGVETGSITELFGEFRTGKSQLCHTLAVTCQIPLDIGGGEGKCLYIDTEGTFRPVRLVSIAQRFGLDPDDALNNVAYARAYNADHQLRLLDAAAQMMSESRFSLIVVDSVMALYRTDFSGRGELSARQMHLAKFMRALQRLADQFGVAAAVTNQVVAQVDGGMAFNPDPKKPIGGNIMAHSSTTRLGFKKGKGCQRLCKVVDSPCLPEAECVFAIYEDGVGDPREEDE [V321A;V322A], the “effect of a mutation on the interaction” value was “disrupting interaction strength”.

The variants in another assay derive from B1. The note with it: with rad52_yeast RAD52, P06778.
Turning to MSQVQEQHISESQLQYGNGSLMSTVPADLSQSVVDGNGNGSSEDIEATNGSGDGGGLQEQAEAQGEMEDEAYDEAALGSFVPIEKLQVNGITMADVKKLRESGLHTAEAVAYAPRKDLLEIKGISEAKADKLLNEAARLVPMGFVTAADFHMRRSELICLTTGSKNLDTLLGGGVETGSITELFGEFRTGKSQLCHTLAVTCQIPLDIGGGEGKCLYIDTEGTFRPVRLVSIAQRFGLDPDDALNNVAYARAYNADHQLRLLDAAAQMMSESRFSLIVVDSVMALYRTDFSGRGELSARQMHLAKFMRALQRLADQFGVAAAVTNQVVAQVDGGMAFNPDPKKPIGGNIMAHSSTTRLGFKKGKGCQRLCKVVDSPCLPEAECVFAIYEDGVGDPREEDE [V321A;V322A], the “effect of a mutation on the interaction” value is listed as “decreasing interaction strength”.

The record behind these values is IntAct's records for PubMed 23624404.
